One data set concerns eNP WT (Ebola virus). The data set can be described thus: fluorescence polarization.
In a further data set the test system is eNP-2 (Ebola virus). As to the kind of experiment: fluorescence polarization. In general terms: Polarisation of emitted light reports the rotation of a fluorescent probe.
The test system of a further data set is eNP-3 (Ebola virus). The data set can be described thus: fluorescence polarization.
The target in data set [1] is FITC-labeled eVP35 NPBP (Ebola virus). The data set can be described thus: fluorescence polarisation.

A word on the Kd: it is a measure of binding affinity in units of concentration. The low end stands for higher affinity, the high end for lower affinity.

Take 20 nt ssRNA: the dissociation constant Kd with eNP WT (Ebola virus) amounted to 0.013 µM; in the data set with eNP-2 (Ebola virus) it was 0.068 µM; with eNP-3 (Ebola virus), 0.015 µM.
In turn, “Ebola virus nucleoprotein, full-length wildtype construct (from UniProt P18272 1-739) (natural protein)” registered a Kd in data set [1] of 0.0106 µM.
Same read-out and setting: next, “eNP-2 (Ebola virus nucleoprotein N-terminal construct lacking the first 24 residues) (domain or fragment)”: 0.0019 µM.
Same read-out and setting: next, “eNP-3 (Ebola virus nucleoprotein N-terminal construct that includes the first 24 residues) (domain or fragment)”: 0.0128 µM.

Values taken from publication PMC5973842.
